Numbering of substitutions follows the chain as printed. In names and notes the source's numbering stands.

Data set [1] has as its target T1, PTP1B catalytic domain (321 residues), GST fusion (Homo sapiens, UniProt P18031 P18031:1-321).
T1 sequence: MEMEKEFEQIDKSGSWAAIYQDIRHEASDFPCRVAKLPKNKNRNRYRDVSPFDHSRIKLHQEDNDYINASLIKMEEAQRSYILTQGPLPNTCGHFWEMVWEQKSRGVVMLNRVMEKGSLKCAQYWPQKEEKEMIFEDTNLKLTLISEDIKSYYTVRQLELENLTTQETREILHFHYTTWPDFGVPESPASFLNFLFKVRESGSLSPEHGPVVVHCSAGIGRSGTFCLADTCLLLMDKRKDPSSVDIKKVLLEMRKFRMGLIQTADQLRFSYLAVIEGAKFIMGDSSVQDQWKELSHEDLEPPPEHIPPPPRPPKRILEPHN
Put plainly: filter; 20 mM HEPES pH 7.2, 5 mM MgCl2, 125 mM NaCl, room temperature. The note with it: tags: GST; hairpin. The method, then: Binding assays were carried out in triplicate at 12 different PTP1B concentrations using a Schleicher & Schuell Milliblot™ apparatus with 0.45 μm BioRad TransBlot® nitrocellulose layered on top of a Hybond™-N+nylon transfer membrane. Radiolabelled RNA at 100-500 pM was heated to 75° C. for 3 minutes then cooled to room temperature before mixing with a 2× serial dilution of the target and also a no-target control. 150 μL of the mixtures at each of the 12 enzyme concentrations were pre-incubated at room temperature for 60 minutes before applying to the pre-washed membrane to allow the RNA complex to reach equilibrium (Waley, S. G. (1993) The Biochemical journal 294 Pt 1, 195-200). Following addition of 40 μL per well of each mixture to three separate wells of the Milliblot™ apparatus, the filter was washed 3 times. The dilutions and all washes used the binding buffer described above. Activity of the filters was measured using a FujiFilm BAS-1800II phosphorimager and relative density used to estimate the fraction of radiolabelled RNA retained on the nitrocellulose and nylon membranes.
A binding assay with a concentration of 2 nM of the radiolabelled C13M21 nucleic acid ligand against PTP1B-GST was performed with the protein concentration ranging from 1 nM to 512 nM in a 2:1 serial dilution. […]

Data set [2] deals with T2, PTP1B (Homo sapiens, UniProt P18031 P18031:1-321).
T2 sequence: T1 sequence
The experiment in a line: inhibition; 125 mM NaCl, DiFMUP, competitive; 20 nM from Lineweaver-Burk fit. The following applies: tags: N-terminal His6; R&D Systems 1366-PT-050; hairpin. The method, then:
In parallel with a no-RNA control, the activity in the presence of 30 nM C13M21 was measured in duplicate for varying concentrations of DiFMUP. […] Fitting of the data in the presence of C13M21 gave a Kₘ*of 63 μM, which equates to a Kᵢ of 20 nM. The fitted Vₘₐₓ in the presence of the inhibitor was equal to or slightly greater than the no-RNA Vₘₐₓ, indicating the presence of competitive inhibition.
(§1) To further refine the estimate of Kᵢ, an assay was run at a fixed DiFMUP concentration of 20 μM with the C13M21 and the full-length C13 nucleic acid ligand, each premixed with the PTP1B at […] in the 125 mM NaCl buffer. […] Nonlinear fitting gives an estimate of the IC₅₀ of […]. Based on a Kₘ of 25 μM, and assuming competitive inhibition, this gives a Kᵢ of 45 nM for C13M21 and a Kᵢ of 7 nM for the full-length nucleic acid ligand at 125 mM NaCl concentration.

The target in data set [3] is T2, PTP1B. The experiment in a line: inhibition; 20 mM NaCl, 5 uM DiFMUP; p151 quotes about 600 pM. The following applies: tags: N-terminal His6; R&D Systems 1366-PT-050; hairpin.
The target in data set [4] is T2, PTP1B. Put plainly: inhibition; parent about 35 nM. The note with it: tags: N-terminal His6; R&D Systems 1366-PT-050. The method, then:
Several single-base modifications of the M21 nucleic acid ligand were also tested to determine whether the changes would affect the level of inhibition. With reference to the postulated secondary structure shown in FIG. 9, the sequence at each position on the unpaired regions was modified at positions 31 through 37 and positions 42 through 46. […] From this, it appears that the other nucleotides are either critical in the contact with the PTP1B molecule or in shaping the nucleic acid ligand into a conformation that binds with the PTP1B.

Data set [5] has as its target T2, PTP1B. The experiment in a line: inhibition; 125 mM NaCl, DiFMUP. The note with it: tags: N-terminal His6; R&D Systems 1366-PT-050; hairpin. The method, then: as §1
Data set [6] addresses T2, PTP1B. Put plainly: inhibition; 20 mM NaCl, 5 uM DiFMUP. The note with it: tags: N-terminal His6; R&D Systems 1366-PT-050; hairpin.

B1: C13M21 (ssRNA)
RNA: GGGAAUUCUGUGAUCAAUUUGGCAAUCCGCCACACGAGUUC
As to B1, in data set [1], binding was characterised by a dissociation constant (Kd) of 28 nM. Also, the Ki (usually the equilibrium dissociation constant of an inhibitor or competing ligand from its target) turned out to be 45 nM with PTP1B [2] and 0.3 nM with PTP1B [3].

B2: C9 shortened to M21 range (ssRNA)
RNA: B1 RNA with C15U, G36U
modifications: [15,36]
For B2, the Ki with PTP1B [4] is ~250 nM.

B3: C13M21 G54U (ssRNA)
RNA: B1 RNA with G36U
modifications: [36]
Regarding B3, the Ki with PTP1B [4] was found to be 48 nM.

B4: C13 (ssRNA)
RNA: GGGAAUGGAUCCACAUCUACGAAUUCUGUGAUCAAUUUGGCAAUCCGCCACACGAGUUCACUGCAGACUUGACGAAGCUU
B4: the inhibition constant (Ki) in the data set with PTP1B [5] is 7 nM; in the data set with PTP1B [6], < 0.1 nM.

The values above are taken from US20090275637, “PROTEIN TYROSINE PHOSPHATASE INHIBITORS” (published 2009).
